Source: the domain aggregation screens of Martell et al. (2025)

Assay: soluble fraction after stress (log2 fold change); higher = more stays soluble; pooled small domains, quantitative proteomics
Conditions: stress: 75 degC
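Also: 20 min heating vs room temperature control held 20 min.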

Sequence	soluble fraction (log2)
HMVLSVRDRMVQILDQVKTGEYKRIEDFFSADEGRTGFVVSFVAILELVKGGLLTITQSKNLAPIYVRLPN	-0.0123
HMVLVEEYDTKDSASTFKIGYYARYNTKYGTPSKVGSYADNQRSGIWTFYTDSLKTYFKYNYSTGLIL	0.0292
HMVLVGERRQKILEVVSSGKAVTVEELSRILHVSPSTVRRDLRFLESRGLLYRTHGGAMPPV	-1.95
HMVLVKFEWTPPDARILVDDHPVEARDKEMELPEGTHHVQALAPRGSGYESTVTDIEVRQGMDPVRIAL	-0.292
HMVMRHTVEHDAELLAVLRLMYPASSSTKLRKMLTQGRVLVNDDVVHRAKHGVASGDTVDVIVRQRAE	-2.21
HMVNFKLIGNKIAEARKKVNISQAQLAQRLFISSQAVGKWERGESMPDIITFNRLAEILGVDLNYFSE	-2.53
HMVNPDAPAPLYIVNGKETDKNIALAIKPEDVQDVRIIKNTVALQVYGEKGKNGVVIINTKPGV	0.132
HMVNSADLAAKPFIDLLVSTRQQLREAKQYDLADTIRDELTNHGITIEDKPQGSEWQYEFNPNS	0.0875
HMVNTYILNNKEYPIEIIRKNNKNTYLRVKEGKIIVTTNYLTSSFTINKLIKDNTSFINKALLKEN	-0.71
HMVNYKEILRLAHEGYSQRQIATNIGNSRNTVSEVLDAAKAANIAWPPEETVTNEQLGAILFPNRH	0.349
HMVNYKEILRLSAEGNSQRQIAAGSGNSRNTVIEVLEAARARGITWPLDEPVTNEQLEAILFPNRY	-0.072
HMVPEETKQFINQLNHGSLSIRMNAANNLEKLGLLAIPEIEAALPKAHGEAAFRLPRLLHALVLRETEYF	0.185
HMVPEMIRDVISKSIRDMGVLPDHMQINERIALIQSLKKQQILGIKGAVAETARQLGISVPTVYRYMKKG	-0.946
HMVPFISVTPTSLSFAKGGESKTVDIEASGAFSVGKVPTGFNLEVVNGRITITADANTGAARNGSVEFILA	0.222
HMVPHTTSMVAEVQERLFNLNYDPGPINGRMDQATITAITRFQRNFSLPQTGQIDEGFLNTLRDARL	-0.73
HMVPLGDLSKNERRAMELAATNGNVTTRALADDAQVTKRTASTTLRRLAKRGLLEWIGKGPSDPGQFYRIP	-0.351
HMVPLTPGELVGTEVRVLWWKEGRGEVIASSRGHQLTLEAHSEDPLRAGSTAVVLEAADDVLVVTS	-0.734
HMVPPELEFLQSLMKIEDISELTAAIENNRDAVTDDFKEMLETVIENISGAPDTDPKLLERLKTIRTVLA	-0.0936
HMVPPVVRTIYGAGGKMTATFLFPGGYEVDAASGAELPGKYRVESISLDQVVLTDKDGNRVPVGFSSVAPT	0.149
HMVPQEVLPITLIIDGKLIEENLLYAKMTEQVLIQQLDINNIKSIKQILFAGLDSFGNFFYQEKQN	-2.5
HMVPTATVGENTSTLPVRQLPGGPVLVVLVRGDIVLPLPGHAFQNGDVWREISTVNGVIGWVPDEFLDY	-2.25
HMVPTVSVDRDDTLRFEGRPVDWDVLKRELGAVAGIDELKIYADAKVSALTVSKIMKSASEAGVLQFILVT	-0.0735
HMVQARDQNIEEGRQLVLRELDRLDLVNESLTDVAADMNMKSVEDMYAAIGAGDLRVGQVVHAVLKRAD	0.0164
HMVQDSEWWRNYQSAHDYFIQNGHLNVLRSDKKNTKLYNWIVGQRSSRWNSQGRINLLNSIGFIWDT	-3.01
HMVQISNTDDLYPIVQRIVDANPQSVEDYKNGKAKALGFLVGQMMKETKGKANPSMVNDLIIKAIEE	-0.022
HMVQIVINKEVQTTSQTILRENAGTSSRNIGYVDPNVKLRATLDRNSFYFIPEKKGWIMKSRVKLIEDLS	-3.77

Sequence	soluble fraction (log2)
HMVQMNMLELQEEMQRDRSWIIKHLFQDEYFRRKIAKFSQFPINDSGKYLFHRKSMLKFLNDYAEEIVER	-2.88
HMVQPSAAVRAHPVGAFVEQRQGLSDDQILALQKKWNEGIYARIQGTRWFLFSKDTPAVTSLLLVPDLP	-0.47
HMVQVHEWTNKAGRTIKAKFVRGDAQSVTIFLGGRNFVLKIADLSEESQALARKLSAPPPPP	-2.52
HMVQVPSLVGISEIEAKTLLTQAGFFVKIVEVFDANQPVGIVLAQAPSAGESRIIGSPVTITVNKAQ	-2.41
HMVQVRQPAGAGDLFAKGRLHLSTGTIHTVKPLEVDLPKGRLTVVTGVSGSGKTTLILESLLPALAAAAA	0.377
HMVRSLESESVYDRQRAYEIAYQLRTEERPYSFIATQLNKAGLRPQKAARYEWYSVQELLRSA	-1.38
HMVSDISTQYQKIINEALDKQPEVKLADIVTMIKEQTSNKVQNGIVENVAKQMNGIEIIKIGQAKGVRRTT	0.0482
HMVSDTGAIEAIVAQVLADNPKLVEGYLATPEDKRGKAIGPFIGLTRKAAAGVNPQVVMDVLKKKLSEL	-0.27
HMVSEASELTDTINKIGSLAQALVGANKLSKTDLVGIIKKYHTSANYNSITDIGVAKNILAELEAKN	0.13
HMVSFSIDEALVSAVKGPRSANVMSIQRQFLVRLSVERDGRVTITGANSKSVQQAREAVEAAVEEAKLHP	-2.96
HMVSGVMAQQAIAVLVQQEDKHAPLSDQALAERLQVQGIDISRRTVAKYRQLLQIPSAATRR	-0.669
HMVSIGSQVAKRRRELRLTQQNLAEKMGVSFQAISSWEREEFLPDINKLQKLAAILNTKISYLLEE	-1.33
HMVSINETAFIQIKNSSATEIKEKITALKLDELKNVTITADIRTNKLIVVGPKATINKIQELVIELDTES	-0.174
HMVSKTEAMAVFIADKLQEGMVPANEILELYKGMQLSDRTIRNAKKQLGIVSIRKDGQWYWSL	-1.05
HMVSLPSPLAGKVVSLTVQAGQEVKEGDEIMVLEAMKMNTQVHAPSSGRILALRVQPGDQVEEGQTLVTMG	0.14
HMVSLSNQVFEKIEYDILSGKYKIGEIISEKRLSSELGVSRTPIREALGRLSEEGLVGDSPSGTVVLGI	-0.368
HMVSRVTTPGVVGKTWQETKQILKQADLTVGSLTRDGKDVTPADGDLVTAQNPSAGQAIVRGSSVDLTFDK	0.0104
HMVSSYTMAIQINGKLRATHDFSVDTSQEDIKKIIINLPAIQKYINGVEIKKFIIVPQKIVNIV	-2.73
HMVSTEDEISDKLLLDFALEKLSENEKQIVKLRYYNSLTQSKTAEILNMTQVQVSRSEKKILAKLRGII	-0.0838
HMVSTGIMVVDGRGSVLQHNEAALRQLGVEVLTFESQVKEKLASEDFSVRETTAMLNGKKVRIIAFSDIR	-2.44
HMVSVEELLSSLDPNEATVLKLLAERSSGVDELMERSGLDFSALSEAITNLELFGYIAREMDGVYSFS	-1.05
HMVSVPDIGEKLPDFTGTPKRLLTPLLNKNDVNIIIKGDGWVVSQKPPAGTPVTKGMTIEFTL	-0.525
HMVTDSGEIEKLVDEVIDNNPDQVQQFREGKQQVLSYLVGQAMKLSRGKANPNQVNQFLRDKL	0.433
HMVTDTGEIEAIIDRVISENPDSVSDFKNGKERALKFLMGQAMKESKGKANPQIVNELLLKKL	-0.00511
HMVTDVDELEKLIQKVLDSNSSQVDEYRQGKEKVFGFFVGAVMKLTKGQADPDVVNQLLKEKLSGRK	-0.177
HMVTDVDYSTFLSQVEEGKVESVTIEDGEILFKGKDENGEARWYITGEMNDPNLVERLKDKVPSFNAPA	0.194

Sequence	soluble fraction (log2)
HMVTIYQRIMLVLEDKQVSVNALSKLVDMSQTTLNTQLKGERTLSANVVAKVLVAYPDVSAEWLMRGVGTM	-0.96
HMVTLYDGFLSELRKRIPRGAELTNTLVDMLYIEREAVYRRLRGEVPFTFIEVMTVSKELGISLDNLAQA	-1.38
HMVTTADIILEFYSRNPNATLTQAAQHVARATGTTYSRQAISAQLKRLEVAGLVERNGHVTV	-0.226
HMVTTLLIINVAGKVKNPGVYQLPPGSRVVDALEAAGQQLKGVDISDINLARVLVDGEQILIGSN	-2.5
HMVTVQEGETLSAIAARSGVSVKDLVRANEIRNPDSIQEGQVLFVP	0.115
HMVVADFQNYTVKPKENLYSLTKTSGLSQEELVALNPELKNGVQEGMVIKLPAAVKLMAQPE	0.201
HMVVLPGEVLRINVIQEGKEHGQGVGYMDDGTMVVIENGREFIGEYMEVNVTKVLQTAAGRMIFGRVD	-2.31
HMVVLPPTEDAPEWAQVFDRLGRPESADGYKLPVPEGADPAFAKLASAKMHELGLSAKQGAALAAWWNEQA	0.0475
HMVVMEIGANGSEVVKLQKRLNQLGYYTEHASGVYDVKTASAVNEFQRQNELNATGKADYTTLDMIYNQ	-0.00159
HMVVRRLPFGFSKRFGVLVVPGTSNPVELLYREDASMQSLLEARRVVAQPVAFKKTDVESFNAQLARAHEN	-1.66
HMVVSDSAEIDKIVQDVIAANPKAIEDFKSGKTNVTGWLMGQVMKLSHGKANPKQATEILNKYLSK	0.513
HMVVTRVKAIDVVNIRKSDSETADKLGKAAVGDEFDLLEKKGNGWSKISYEGGEAYIKSEFLEPSE	0.602
HMVVVMEKNASSAEIEQVQERLRQAGFKIHLSQGVERTIIGAIGDRSQVDLGFLEALPGVEKVVPIMK	0.171
HMVVYFGGPVMLERGIVLHTPDISTKGTINVSDDFALTAHKEILDNINKDTSSLQFKLAIGH	-0.616
HMVWINIRDLSDLFSKSGKSENSKNILDLQTLKIEKLLGGGQINTPYTIKVKQATPSAIEKVKQAGGEVIL	-0.104
HMVWPETEAIVTEDFIGKKRSEVQQEGVIFEFFGEGDMVIDQLPRGGVTLNESGRVWIYLGEDTF	-0.78
HMVYFAKNIRHLRRLRGMSQELLAAELDITRARLGAYEESRSEPPLHLLIKISEFFKLPVDIIVKNDLTKS	-4.88
HMVYFDDEELDRFAGRAADSYTSDETDEFRDVMLTLLPADVMPWTQSIEMRGILLPEQLRDELLML	-0.391
HMVYVPTKAEVSQQFQDASKARFDERYAIVELADGRRTMAPLAFLTKADHAWLKQLASTSPLPKGK	-0.16
HMWAQSVSLHGLLGRQALLIVDGKPPRAVAPGQTHLGVTVLSTDEDRAVVALAGGQRLTLRVGESPVSVG	-1.51
HMWMEKEELLWNDIIRGGVERGELREDTDIQEAAALFRQVFIGLAYQMSFSDGLDVGILRKRFHHIYGLLT	-0.173
HMWNKGETKIPTQAQNELIKRRQAGATWTSLSEWLKATYGIDIHRTNIQRWYDKEVYLDQEN	-0.531
HMWNPVLVVRGDFPKDLATTLLKMIFAQKEALNPHILFQNLLRTDNITFRESYPYHSASKTMFRF	-0.276
HMWPQIAGFADRFGLSDTERRIVTLMSHGRSRKIIASTLGYSQNTIRNYTRNIYAKAGVHSKQELLDLLDP	-1.96
HMWPTPRTWSALMNELNLYKENHGYANIVDIPSEKIRRMADGIIGEDMAVRYVAFLQSHASS	-1.7
